In one assay the target is T1, HLA-B*07 (human).
T1 construct: MHC monomer made peptide-receptive by UV cleavage of a UV-sensitive ligand; also called peptide-receptive MHC class I monomer
Description: UV peptide-exchange ELISA; ++++ = yield >75%. (In an ELISA, binding on a coated surface is turned into a signal by an enzyme label.)
In turn, LPRALLSSL [LPRALLSSL (SEQ ID NO: 473)] registered a peptide exchange yield above 75%.

RPRSALPRLLLP [RPRSALPRLLLP (SEQ ID NO: 293)] came in with a peptide exchange yield above 75%.

In turn, LPRLLPAL [LPRLLPAL (SEQ ID NO: 474)] displayed a peptide exchange yield above 75%. In turn, YPLFRGINL [YPLFRGINL (SEQ ID NO: 268)] had a peptide exchange yield above 75%. The same measure, in the same setting: under RPHSLSSEL [RPHSLSSEL (SEQ ID NO: 283)] stands above 75%. Same read-out and setting: for MPLPWSLALPL [MPLPWSLALPL (SEQ ID NO: 272)] the value was above 75%; for VPENHSVAL [VPENHSVAL (SEQ ID NO: 289)], above 75%. On the same count and under the same terms, under GPTPNTGAAL [GPTPNTGAAL (SEQ ID NO: 294)] stands above 75%; under KPRPDVTNEL [KPRPDVTNEL (SEQ ID NO: 471)], above 75%. Molecule RPRAPVTPA [RPRAPVTPA (SEQ ID NO: 281)] yielded a peptide exchange yield above 75%. The same measure, in the same setting: under APYKSVTSL [APYKSVTSL (SEQ ID NO: 466)] stands above 75%; under KPEGTRIAV [KPEGTRIAV (SEQ ID NO: 295)], above 75%. On the same count and under the same terms, under KPFSSFTSM [KPFSSFTSM (SEQ ID NO: 467)] stands above 75%; under TPKAGPTL [TPKAGPTL (SEQ ID NO: 463)], above 75%; under NPRATDAQL [NPRATDAQL (SEQ ID NO: 472)], above 75%. Still for that read-out and setting: for APGPRFLVT [APGPRFLVT (SEQ ID NO: 270)] the value was above 75%; for FPSFLTNSL [FPSFLTNSL (SEQ ID NO: 285)], above 75%; for RPFHTRATV [RPFHTRATV (SEQ ID NO: 462)], above 75%. With APRAPRLML [APRAPRLML (SEQ ID NO: 269)], the peptide exchange yield is above 75%. On the same count and under the same terms, under SPMYGQAGL [SPMYGQAGL (SEQ ID NO: 468)] stands above 75%. Still for that read-out and setting: for SPQRLRGLL [SPQRLRGLL (SEQ ID NO: 291)] the value was above 75%; for RPHKPGLYL [RPHKPGLYL (SEQ ID NO: 475)], above 75%; for YPRPGTPAA [YPRPGTPAA (SEQ ID NO: 464)], above 75%. SPNSYFRVL [SPNSYFRVL (SEQ ID NO: 470)] came in with a peptide exchange yield above 75%.

VPTLRSEL [VPTLRSEL (SEQ ID NO: 286)]: the peptide exchange yield is above 75%.

For MPMAGDMNGL [MPMAGDMNGL (SEQ ID NO: 460)], the peptide exchange yield was above 75%. In turn, VPRPIFSQL [VPRPIFSQL (SEQ ID NO: 465)] came in with a peptide exchange yield above 75%.

APYRPPDISL [APYRPPDISL (SEQ ID NO: 290)] came in with a peptide exchange yield above 75%.

For the next assay, the target named is T2, HLA-A*01 (human).
T2 construct: MHC monomer made peptide-receptive by UV cleavage of a UV-sensitive ligand; also called peptide-receptive MHC class I monomer
Description: UV peptide-exchange ELISA; +++ = yield >50%. The source says: Candidate peptides for T cell based therapies according to the present invention were further tested for their MHC binding capacity (affinity). The individual peptide-MHC complexes were produced by UV-ligand exchange, where a UV-sensitive peptide is cleaved upon UV-irradiation, and exchanged with the peptide of interest as analyzed. Only peptide candidates that can effectively bind and stabilize the peptide-receptive MHC molecules prevent dissociation of the MHC complexes. To determine the yield of the exchange reaction, an ELISA was performed based on the detection of the light chain (β2m) of stabilized MHC complexes. The assay was performed as generally described in Rodenko et al. (Rodenko et al., 2006).
96 well MAXISorp plates (NUNC) were coated over night with 2 ug/ml streptavidin in PBS at room temperature, washed 4× and blocked for 1 h at 37° C. in 2% BSA containing blocking buffer. […] Peptide-MHC monomers of the UV-exchange reaction were diluted 100-fold in blocking buffer. Samples were incubated for 1 h at 37° C., washed four times, incubated with 2 ug/ml HRP conjugated anti-β2m for 1h at 37° C., washed again and detected with TMB solution that is stopped with […]. Absorption was measured at 450 nm.
Regarding NTQITDIGRY [NTQITDIGRY (SEQ ID NO: 166)], the peptide exchange yield fell in the range of 50 to 75%.

In the case of ESDREELNY [ESDREELNY (SEQ ID NO: 140)], the peptide exchange yield lay in the range of 50 to 75%. The same measure, in the same setting: for HSDLKVGEY [HSDLKVGEY (SEQ ID NO: 151)] the value was 50 to 75%; for FTEQWTDGY [FTEQWTDGY (SEQ ID NO: 408)], 50 to 75%. Same read-out and setting: under KLDRSVFTAY [KLDRSVFTAY (SEQ ID NO: 153)] stands 50 to 75%; under FIDYPKKEDY [FIDYPKKEDY (SEQ ID NO: 143)], 50 to 75%; under LLDPRSYHTY [LLDPRSYHTY (SEQ ID NO: 415)], 50 to 75%. On the same count and under the same terms, under LVDDGTHGQY [LVDDGTHGQY (SEQ ID NO: 161)] stands 50 to 75%; under NTDPTAPPY [NTDPTAPPY (SEQ ID NO: 165)], 50 to 75%. VVDEDHELIY [VVDEDHELIY (SEQ ID NO: 447)] displayed a peptide exchange yield of 50 to 75%. Turning to RTDSCSSAQAQY [RTDSCSSAQAQY (SEQ ID NO: 172)], the peptide exchange yield was in the range of 50 to 75%. The molecule LVDNSIRELQY [LVDNSIRELQY (SEQ ID NO: 162)] showed a peptide exchange yield of 50 to 75%. As for NLDEEKQLLY [NLDEEKQLLY (SEQ ID NO: 424)], the peptide exchange yield was in the range of 50 to 75%. Same read-out and setting: under LSDPSGPKSY [LSDPSGPKSY (SEQ ID NO: 418)] stands 50 to 75%.

NSDSSLTLREFY [NSDSSLTLREFY (SEQ ID NO: 163)] displayed a peptide exchange yield of 50 to 75%. Same read-out and setting: for QSDPGTSVLGY [QSDPGTSVLGY (SEQ ID NO: 167)] the value was 50 to 75%. Regarding VLDQGKITEY [VLDQGKITEY (SEQ ID NO: 445)], the peptide exchange yield was in the range of 50 to 75%. In turn, TLDAGKFQIY [TLDAGKFQIY (SEQ ID NO: 439)] yielded a peptide exchange yield of 50 to 75%.

Take LTEAVLNRY [LTEAVLNRY (SEQ ID NO: 160)]: the peptide exchange yield is 50 to 75%. On the same count and under the same terms, under EVAEPSVLFDLY [EVAEPSVLFDLY (SEQ ID NO: 142)] stands 50 to 75%; under LLDSLREQY [LLDSLREQY (SEQ ID NO: 156)], 50 to 75%; under NLDQATRVAY [NLDQATRVAY (SEQ ID NO: 426)], 50 to 75%.

For the molecule ESDVGVVVY [ESDVGVVVY (SEQ ID NO: 141)], the peptide exchange yield lay within 50 to 75%.

As for STDNFNCKY [STDNFNCKY (SEQ ID NO: 438)], the peptide exchange yield lay in the range of 50 to 75%. TLDENPGVRY [TLDENPGVRY (SEQ ID NO: 440)] showed a peptide exchange yield of 50 to 75%. Same read-out and setting: under FVDKPVAY [FVDKPVAY (SEQ ID NO: 145)] stands 50 to 75%; under HTDSLHLLI [HTDSLHLLI (SEQ ID NO: 152)], 50 to 75%; under FLDSQNLSAY [FLDSQNLSAY (SEQ ID NO: 144)], 50 to 75%.

Take YLDIPNPRY [YLDIPNPRY (SEQ ID NO: 448)]: the peptide exchange yield is 50 to 75%.

LLDISQKNLY [LLDISQKNLY (SEQ ID NO: 154)] registered a peptide exchange yield of 50 to 75%. Same read-out and setting: under TTDTVIRSY [TTDTVIRSY (SEQ ID NO: 444)] stands 50 to 75%; under NVDPVQHTY [NVDPVQHTY (SEQ ID NO: 432)], 50 to 75%. Same read-out and setting: under ECDMAFHIY [ECDMAFHIY (SEQ ID NO: 139)] stands 50 to 75%.

KTDESLTKY [KTDESLTKY (SEQ ID NO: 414)] yielded a peptide exchange yield of 50 to 75%.
